Results reported in US20050002900A1, “Method of treating estrogen responsive breast cancer” (priority 2001, published 2005).

Assays:
aromatase mRNA = assay: RT-PCR of aromatase mRNA in cultured adipocytes; type: cell-based, human; settings: for expression of aromatase mRNA in human adipocytes: interferon alone, endogenous expression, FIG. 3; for transcription of aromatase mRNA: cytokine alone compared to untreated control
Experimental: (§1) Human subcutaneous cultured adipocytes and preadipocytes, catalog nos. SP-1012, SP-1024, SP-1096, SP-75, or SP-25 were purchased from Zen-Bio, Inc. (Research Triangle Park, N.C.) and cultured according to the manufacturer's instructions.
Adipocyte cultures were treated with IL-1-β, IFN-γ, TNF-α, and combinations of IL-1-β and IFN-γ and TNF-α and IFN-γ. Consequently, total RNA from cultured adipocytes was isolated using conventional methods. The reverse transcriptase polymerase chain reaction (RT-PCR) was performed using aromatase specific primers. The amplified aromatase cDNA fragments produced by RT-PCR were separated on an agarose gel. […] The estradiol production by the cells is shown as pikograms/ml (pg/ml) below the photograph of the gel showing the aromatase mRNA levels.
(§2) The isolated human adipocytes were also treated with different interferon family members: IFN-α, -β, and -γ.

human adipocytes = assay: Estradiol production by cultured human adipocytes (Active Estradiol EIA kit); type: cell-based; settings: for estradiol amount: cytokine alone at increasing concentrations
Experimental: as §1
The culture medium of the preadipocytes was supplemented with 0.1 μg/ml IFN-γ and increasing concentrations of either TNF-α or TNF-β as shown in FIG. 1. Estradiol concentrations were measured using the Active™ Estradiol EIA kit according to the manufacturer's instructions (catalog no. DSL-10-4300, Diagnostic Systems Laboratories, Inc., Webster, Tex.).
as §2

## IFN-α
Aromatase mRNA
  expression of aromatase mRNA in human adipocytes: significantly increased
Human adipocytes; interferon alone, FIG. 3
  estradiol production increase upon interferon induction: about 6 fold

## IL-1β: interleukin-1β
Aromatase mRNA; FIG. 2
  transcription of aromatase mRNA: induced

## TNF-α
Aromatase mRNA; FIG. 2
  transcription of aromatase mRNA: induced
Human adipocytes; FIG. 1
  estradiol amount: significantly increased

B1: TBP: soluble TNF binding protein, TNF-R1, as described in U.S. Pat. No. 6,225,300 (protein, UniProt P19438 30-211, looked up)
extracellular domain: LVPHLGDREKRDSVCPQGKYIHPQNNSICCTKCHKGTYLYNDCPGPGQDTDCRECESGSFTASENHLRHCLSCSKCRKEMGQVEISSCTVDRDTVCGCRKNQYRHYWSENLFQCFNCSLCLNGTVHLSCQEKQNTVCTCHAGFFLRENECVSCSNCKKSLECTKLCLPQIENVKGTEDSGTT
modifications: extracellular domain
Human adipocytes; TNF-α at varying concentrations plus TBP, FIG. 4
  TNF-α induced estradiol production: completely blocked
Human adipocytes; TNF-β at varying concentrations plus TBP, FIG. 4
  TNF-β induced estradiol production: completely blocked

B2: IFN-γ: interferon gamma, added at 0.1 μg/ml to adipocyte culture medium (protein, UniProt P01579 24-161, looked up)
Interferon gamma: QDPYVKEAENLKKYFNAGHSDVADNGTLFLGILKNWKEESDRKIMQSQIVSFYFKLFKNFKDDQSIQKSVETIKEDMNVKFFNSNKKKRDDFEKLTNYSVTDLNVQRKAIHELIQVMAELSPAAKTGKRKRSQMLFRG
Aromatase mRNA; given together with IL-1β, FIG. 2
  transcription of aromatase mRNA induced by IL-1β: inhibits
Aromatase mRNA; given together with TNFα, FIG. 2
  transcription of aromatase mRNA induced by TNFα: inhibits
Aromatase mRNA
  expression of aromatase mRNA in human adipocytes: inhibits
Human adipocytes; 0.1 μg/ml IFN-γ, increasing concentrations of TNF-α, FIG. 1
  TNF-α induced estradiol production: inhibits
Human adipocytes; 0.1 μg/ml IFN-γ, increasing concentrations of TNF-β, FIG. 1
  TNF-β induced estradiol production: inhibits
Human adipocytes; IFN-γ alone, FIG. 3
  estradiol production: blocked completely

B3: TNF-β: tumor necrosis factor beta (protein, UniProt P01374 35-205, looked up)
Lymphotoxin-alpha: LPGVGLTPSAAQTARQHPKMHLAHSTLKPAAHLIGDPSKQNSLLWRANTDRAFLQDGFSLSNNSLLVPTSGIYFVYSQVVFSGKAYSPKATSSPLYLAHEVQLFSSQYPFHVPLLSSQKMVYPGLQEPWLHSMYHGAAFQLTQGDQLSTHTDGIPHLVLSPSTVFFGAFAL
Human adipocytes; FIG. 1
  estradiol amount: significantly increased
